Measurements taken from paper PMC2557009, “YB-1 promotes microtubule assembly in vitro through interaction with tubulin and microtubules” (BMC Biochemistry, 2008).

Biological target: the molecule itself
Test: cross-linking; zero length cross-linker EDC (5 mM) / sulfo-NHS (12 mM); 1 μM tubulin and 0.3, 0.5, 0.8 or 1.2 μM YB-1, or each alone; 50 mM MES-KOH pH 6.8, 1 mM MgCl2, 1 mM EGTA, 0.5 mM GTP, 1 h at 30°C; SDS-PAGE, Coomassie and Western blot

B1: YB-1 (natural protein)
chain: not shown
notes: source: E. coli BL21(DE3), pET 3-1-YB-1 construct, purified (heparin-Sepharose, Sephacryl S-200)
stoichiometry N: 2
